Kd data for one substance are collected here from publication PMC5799870.

The assay addresses soluble human FcRn (human) (UniProt P55899). The experiment in a line: SPR. The conditions noted are these: natural protein; remark: other sources report otherwise.

By Kd is commonly meant the constant that tells how readily two partners part at equilibrium. High values mean lower affinity, low ones higher affinity.

UniProt P55899, sequence (P55899 24-297, chain 1 of 2): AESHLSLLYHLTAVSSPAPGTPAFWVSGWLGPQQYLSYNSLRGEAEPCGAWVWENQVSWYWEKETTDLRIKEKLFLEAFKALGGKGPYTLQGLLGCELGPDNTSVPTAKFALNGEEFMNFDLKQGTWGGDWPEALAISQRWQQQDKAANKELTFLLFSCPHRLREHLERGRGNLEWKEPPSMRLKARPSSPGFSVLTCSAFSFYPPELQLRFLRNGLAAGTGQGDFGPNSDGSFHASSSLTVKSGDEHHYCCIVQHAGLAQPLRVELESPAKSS
UniProt P55899, sequence (partner, as listed by the source, chain 2 of 2): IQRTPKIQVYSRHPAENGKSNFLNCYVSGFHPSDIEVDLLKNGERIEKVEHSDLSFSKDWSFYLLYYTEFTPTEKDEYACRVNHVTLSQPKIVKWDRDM

Substance “Recombumin-NHBn34 (from UniProt P02768 25-609)” showed a Kd of 13.2 µM.
